Experimental data from publication doi:10.1101/2022.11.30.518472.
Values belong to the substance of their own block, whether it stands above or below them.

Key:
[1] = biological target: Bet1-GST (pET21b-Bet1-GST), cytoplasmic domain of Bet1 (Aspergillus nidulans); assay: pull-down
[2] = biological target: Uso1-His6x, full length (pET21b-Uso1-His6x) (Aspergillus nidulans); assay: SEC
[3] = biological target: Uso1-His6x, full length (pET21b-Uso1-His6x) (Aspergillus nidulans); assay: AUC + other: dynamic light scattering
[4] = biological target: Uso1(E6K/G540S)ΔCTR-His6x (pET21b-Uso1(E6K/G540S)ΔCTR-His6x) (Aspergillus nidulans); assay: AUC + other: dynamic light scattering
[5] = biological target: Uso1ΔCTR-His6x (pET21b-Uso1ΔCTR-His6x) (Aspergillus nidulans); assay: AUC + other: dynamic light scattering
[6] = biological target: Uso1 CCD-His6x (pET21b-Uso1 CCD-His6x), coiled-coil domain (CC + CTR) (Aspergillus nidulans); assay: AUC + other: dynamic light scattering
[7] = biological target: Bos1-GST (pET21b-Bos1-GST), cytoplasmic domain of Bos1 (Aspergillus nidulans); assay: pull-down
[8] = biological target: Uso1(E6K/G540S)-His6x, full length (pET21b-Uso1(E6K/G540S)-His6x) (Aspergillus nidulans); assay: AUC + other: dynamic light scattering
[9] = biological target: Uso1-HA3, full length, native protein of Aspergillus (Aspergillus nidulans); assay: SEC

Substance: Uso1(E6K/G540S)ΔCTR-His6x (pET21b-Uso1(E6K/G540S)ΔCTR-His6x) (domain or fragment)
stoichiometry N [4]: 2

Substance: Uso1 CCD-His6x (pET21b-Uso1 CCD-His6x), coiled-coil domain (CC + CTR) (domain or fragment)
stoichiometry N [6]: 2

Substance: Uso1(E6K/G540S)-His6x, full length (pET21b-Uso1(E6K/G540S)-His6x) (natural protein)
fold increase of the protein retained, against wild-type Uso1 [7]: 5 fold | stoichiometry N [8]: 2

Substance: Uso1-HA3, full length, native protein of Aspergillus (natural protein)
stoichiometry N [9]: 2

Second part, the substance after the results:

percent of the prey pulled down [1]: 70% | stoichiometry N [2]: 2 | stoichiometry N [3]: 2
Substance: Uso1-His6x, full length (pET21b-Uso1-His6x) (natural protein)

stoichiometry N [5]: 2
Substance: Uso1ΔCTR-His6x (pET21b-Uso1ΔCTR-His6x) (domain or fragment)
